Measurements as given in patent US20250361295A1.
Blank lines part the entries; values can stand above or below the substance they belong to.

Columns and labels:
hLILRB3 (human) = hLILRB3 (human) (UniProt O75022); assay: FACS; isotype control
human LILRB4 (human) [1] = target: human LILRB4 (human) (UniProt Q8NHJ6); assay: FACS
human LILRB4 (human) [2] = target: human LILRB4 (human) (UniProt Q8NHJ6); assay: competitive FACS; competition with IO-202
human LILRB4 (human) [3] = target: human LILRB4 (human) (UniProt Q8NHJ6); assay: cell-based or functional assay
[4] = target: human LILRA6 protein (human) (UniProt Q6PI73); assay: ELISA, LILRA6 protein

- EC50 (hLILRB3 (human)): 42 nM
Substance: Isotype

Substance: IO-202
- EC50 (human LILRB4 (human) [1]): 1.31 nM
- IC50 (human LILRB4 (human) [2]): 3.74 nM

- ADCP (%) at 133.3 nM, macrophages and MV-4-11 cells (human LILRB4 (human) [3]): 2.92%
- FcγR stimulation (TNF-α, pg/mL) (human LILRB4 (human) [3]): 31.6 pg/mL
- Fold change (Compared to isotype) (human LILRB4 (human) [3]): 1 fold
- ELISA(OD450) [4]: 0.152 OD450
Substance: Isotype (hIgG1) (antibody)
- Max cell cytotoxicity (%), ADCC on THP-1 cells (human LILRB4 (human) [3]): 2.75%
